Source: publication PMC4449183, “Structural-Functional Analysis Reveals a Specific Domain Organization in Family GH20 Hexosaminidases” (PLoS ONE, 2015)

T1: Construct A (residues 40–528) of B. bifidum lacto-N-biosidase, GH20b-GH20-α (Bifidobacterium bifidum (strain DSM …, UniProt B3TLD6))
T1 chain: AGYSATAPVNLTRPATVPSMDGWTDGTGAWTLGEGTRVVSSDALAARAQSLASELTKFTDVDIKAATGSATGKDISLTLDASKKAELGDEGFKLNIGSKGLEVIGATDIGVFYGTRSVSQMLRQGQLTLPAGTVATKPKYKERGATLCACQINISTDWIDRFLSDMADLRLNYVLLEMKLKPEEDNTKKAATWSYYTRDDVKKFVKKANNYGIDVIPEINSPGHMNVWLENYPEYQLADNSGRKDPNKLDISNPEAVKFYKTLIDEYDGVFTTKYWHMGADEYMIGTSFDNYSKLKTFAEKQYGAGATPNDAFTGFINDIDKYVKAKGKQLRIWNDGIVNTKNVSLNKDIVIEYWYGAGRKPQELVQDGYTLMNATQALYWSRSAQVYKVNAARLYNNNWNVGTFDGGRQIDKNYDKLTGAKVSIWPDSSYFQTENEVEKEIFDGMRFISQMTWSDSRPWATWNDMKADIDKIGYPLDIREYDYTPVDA

B1: Construct F (546–776) of B. bifidum lacto-N-biosidase, the single lectin domain (domain or fragment, Bifidobacterium bifidum, UniProt B3TLD6 546-776, looked up)
chain: LITTPDGYYQMKDTVSGKCLALFTGSKHLDVVTQVGARPELRNCADVSVGQDQRNTANERNTQKWQIRADKDGKYTISPALTQQRLAIATGNEQNIDLETHRPAAGTVAQFPADLVSDNALFTLTGHMGMSATVDSKTVNPASPSKITVKVRAASNANTGDVTVTPVVPEGWEIKPGSVSLKSIPAGKAAIAYFNVVNTTGTGDATVQFKLTNTKTGEELGTTSVALTGSL
B2: Construct A (residues 40–528) of B. bifidum lacto-N-biosidase, GH20b-GH20-α (domain or fragment, Bifidobacterium bifidum, UniProt B3TLD6 40-528, looked up)
chain: T1 chain
notes: Lacto-N-biosidase (LnbB), Bifidobacterium bifidum, residues 40-528 (GH20b and GH20 domains with the extra α-helix); synthetic codon-optimised gene in pET28a+ (NdeI/Bpu1102); Mainly dimeric in solution by gel filtration; theoretical mass 57 kDa; also called GH20b-GH20-α construct; source: E. coli BL21 (DE3) star, purified (Ni2+ HiTrap chelating column, Superdex 200)

Key:
[1] = target: T1, Construct A (residues 40–528) of B. …; assay: SEC co-elution with SDS-PAGE, plus activity complementation assay
[2] = target: B2; assay: cell-based or functional assay
[3] = target: the molecule itself; assay: SEC; single purified proteins on XK16/60 Superdex 200 in buffer A (Na2HPO4 20 mM, NaCl 150 mM, pH 7.5)

Binder	binding result [1]	hydrolytic activity on p-nitrophenyl β-lacto-N-bioside of 50 nM construct A with 25 nM-500 nM construct F (pH 4.5, 30°C), relative to the full length enzyme; levels off at a molar ratio of 1:6 [2] [%]	stoichiometry N [3]
B1	binds	11	
B2			2
